Data as given in patent US20130129746A1 (GlaxoSmithKline, published 2013).

B1: DOM7h-14 (other)
VL: DIQMTQSPSSLSASVGDRVTITCRASQWIGSQLSWYQQKPGKAPKLLIMWRSSLQSGVPSRFSGSGSGTDFTLTISSLQPEDFATYYCAQGAALPRTFGQGTKVEIKR
notes: Vk dAb (AlbudAb)
B2: Rat Serum Albumin (other, UniProt P02770 25-608, looked up)
chain: EAHKSEIAHRFKDLGEQHFKGLVLIAFSQYLQKCPYEEHIKLVQEVTDFAKTCVADENAENCDKSIHTLFGDKLCAIPKLRDNYGELADCCAKQEPERNECFLQHKDDNPNLPPFQRPEAEAMCTSFQENPTSFLGHYLHEVARRHPYFYAPELLYYAEKYNEVLTQCCTESDKAACLTPKLDAVKEKALVAAVRQRMKCSSMQRFGERAFKAWAVARMSQRFPNAEFAEITKLATDVTKINKECCHGDLLECADDRAELAKYMCENQATISSKLQACCDKPVLQKSQCLAEIEHDNIPADLPSIAADFVEDKEVCKNYAEAKDVFLGTFLYEYSRRHPDYSVSLLLRLAKKYEATLEKCCAEGDPPACYGTVLAEFQPLVEEPKNLVKTNCELYEKLGEYGFQNAVLVRYTQKAPQVSTPTLVEAARNLGRVGTKCCTLPEAQRLPCVEDYLSAILNRLCVLHEKTPVSEKVTKCCSGSLVERRPCFSALTVDETYVPKEFKAETFTFHSDICTLPDKEKQIKKQTALAELVKHKPKATEDQLKTVMGDFAQFVDKCCKAADKDNCFATEGPNLVARSKEALA
notes: mature; purified protein on CM5 chips for BIAcore; also called RSA; rat SA
B3: DOM7h14-10/TVAAPSC fusion (NCE conjugate) (other)
chain: DIQMTQSPSSLSASVGDRVTITCRASQWIGSQLSWYQQKPGKAPKLLIMWRSSLQSGVPSRFSGSGSGTDFTLTISSLQPEDFATYYCAQGLRHPKTFGQGTKVEIKRTVAAPSC
modifications: C-terminal Cys of the TVAAPSC spacer conjugated by maleimide through a PEG 4 linker to the NCE (small molecule ADAMTS-4 inhibitor)
notes: AlbudAb-drug conjugate; also called DOM7h14-10 NCE-TVAAPSC
B4: DOM7h-11 (other)
VL: DIQMTQSPSSLSASVGDRVTITCRASRPIGTTLSWYQQKPGKAPKLLIWFGSRLQSGVPSRFSGSGSGTDFTLTISSLQPEDFATYYCAQAGTHPTTFGQGTKVEIKR
B5: DOM7h-11-3 (other)
VL: DIQMTQSPSSLSASVGDRVTITCRASRPIGTTLSWYQQKPGKAPKLLILWNSRLQSGVPSRFSGSGSGTDFTLTISSLQPEDFATYYCAQAGTHPTTFGQGTKVEIKR
B6: DOM7h-11-15 (other)
VL: DIQMTQSPSSLSASVGDRVTITCRASRPIGTMLSWYQQKPGKAPKLLILAFSRLQSGVPSRFSGSGSGTDFTLTISSLQPEDFATYYCAQAGTHPTTFGQGTKVEIKR
B7: DOM7h-11-12/DOM1m-21-23 fusion DMS number 5516 (other)
chain: EVQLLESGGGLVQPGGSLRLSCAASGFTFNRYSMGWLRQAPGKGLEWVSRIDSYGRGTYYEDPVKGRFSISRDNSKNTLYLQMNSLRAEDTAVYYCAKISQFGSNAFDYWGQGTQVTVSSASTSGPSDIQMTQSPSSLSASVGDRVTITCRASRPIGTMLSWYQQKPGKAPKLLILFGSRLQSGVPSRFSGSGSGTDFTLTISSLQPEDFATYYCAQAGTHPTTFGQGTKVEIKR
notes: also called DMS5516
B8: DOM7h-11-15/DOM1m-21-23 fusion DMS number 5517 (other)
chain: EVQLLESGGGLVQPGGSLRLSCAASGFTFNRYSMGWLRQAPGKGLEWVSRIDSYGRGTYYEDPVKGRFSISRDNSKNTLYLQMNSLRAEDTAVYYCAKISQFGSNAFDYWGQGTQVTVSSASTSGPSDIQMTQSPSSLSASVGDRVTITCRASRPIGTMLSWYQQKPGKAPKLLILAFSRLQSGVPSRFSGSGSGTDFTLTISSLQPEDFATYYCAQAGTHPTTFGQGTKVEIKR
notes: also called DMS5517
B9: DOM7h14-10/G4SC-NCE fusion (other)
chain: DIQMTQSPSSLSASVGDRVTITCRASQWIGSQLSWYQQKPGKAPKLLIMWRSSLQSGVPSRFSGSGSGTDFTLTISSLQPEDFATYYCAQGLRHPKTFGQGTKVEIKRGGGGSC
modifications: C-terminal Cys of the GGGGSC spacer conjugated by maleimide through a PEG 4 linker to the NCE (small molecule ADAMTS-4 inhibitor)
notes: AlbudAb-drug conjugate; also called DOM7h14-10 NCE-GGGGSC; DOM7h-14-10 GGGGSC

Assays:
Rat Serum Albumin [1] = target: B2; assay: BIAcore SPR;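 as to koff: purified dAbs run at 1 µM, 500 nM and 50 nM over human, cynomolgus, mouse and rat serum albumin in BIAcore binding measurements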
Procedure: (§1) Binding to HSA, CSA, MSA and RSA by BIAcore was confirmed using purified protein at 3 concentrations 1 μM, 500 nM and 50 nM.

mouse serum albumin [2] = target: T1, mouse serum albumin (mouse, UniProt P07724 25-608); assay: BIAcore SPR;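 as to koff: purified dAbs run at 1 µM, 500 nM and 50 nM over human, cynomolgus, mouse and rat serum albumin in BIAcore binding measurements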
T1 construct: mature; purified protein on CM5 chips for BIAcore; also called MSA; mouse SA
T1 sequence (P07724 25-608): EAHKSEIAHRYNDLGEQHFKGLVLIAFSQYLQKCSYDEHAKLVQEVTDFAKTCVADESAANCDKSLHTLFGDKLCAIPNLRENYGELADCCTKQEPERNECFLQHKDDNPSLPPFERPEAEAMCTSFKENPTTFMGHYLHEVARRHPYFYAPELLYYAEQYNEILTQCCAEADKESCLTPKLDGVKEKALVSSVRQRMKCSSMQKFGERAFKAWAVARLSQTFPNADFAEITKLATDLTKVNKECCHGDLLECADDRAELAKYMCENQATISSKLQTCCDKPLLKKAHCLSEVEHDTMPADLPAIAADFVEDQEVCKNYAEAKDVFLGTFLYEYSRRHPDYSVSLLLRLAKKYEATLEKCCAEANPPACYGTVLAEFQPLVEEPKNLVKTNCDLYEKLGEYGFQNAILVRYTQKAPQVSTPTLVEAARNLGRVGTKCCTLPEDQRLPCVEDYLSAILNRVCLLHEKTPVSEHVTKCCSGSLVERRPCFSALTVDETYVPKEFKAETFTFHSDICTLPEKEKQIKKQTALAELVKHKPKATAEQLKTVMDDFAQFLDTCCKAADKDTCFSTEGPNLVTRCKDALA
Procedure: as §1

Human Serum Albumin [3] = target: T2, Human Serum Albumin (human, UniProt P02768 25-609); assay: BIAcore SPR;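 as to koff: purified dAbs run at 1 µM, 500 nM and 50 nM over human, cynomolgus, mouse and rat serum albumin in BIAcore binding measurements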
T2 construct: mature; purified protein on CM5 chips for BIAcore; also called HSA; human SA
Procedure: as §1

[4] = target: T3, Cynomolgus monkey Serum Albumin (Cynomolgus monkey, UniProt A2V9Z4 25-608); assay: BIAcore SPR;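 as to koff: purified dAbs run at 1 µM, 500 nM and 50 nM over human, cynomolgus, mouse and rat serum albumin in BIAcore binding measurements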
T3 construct: mature; purified protein on CM5 chips for BIAcore; also called CSA; cyno SA
T3 sequence (A2V9Z4 25-608): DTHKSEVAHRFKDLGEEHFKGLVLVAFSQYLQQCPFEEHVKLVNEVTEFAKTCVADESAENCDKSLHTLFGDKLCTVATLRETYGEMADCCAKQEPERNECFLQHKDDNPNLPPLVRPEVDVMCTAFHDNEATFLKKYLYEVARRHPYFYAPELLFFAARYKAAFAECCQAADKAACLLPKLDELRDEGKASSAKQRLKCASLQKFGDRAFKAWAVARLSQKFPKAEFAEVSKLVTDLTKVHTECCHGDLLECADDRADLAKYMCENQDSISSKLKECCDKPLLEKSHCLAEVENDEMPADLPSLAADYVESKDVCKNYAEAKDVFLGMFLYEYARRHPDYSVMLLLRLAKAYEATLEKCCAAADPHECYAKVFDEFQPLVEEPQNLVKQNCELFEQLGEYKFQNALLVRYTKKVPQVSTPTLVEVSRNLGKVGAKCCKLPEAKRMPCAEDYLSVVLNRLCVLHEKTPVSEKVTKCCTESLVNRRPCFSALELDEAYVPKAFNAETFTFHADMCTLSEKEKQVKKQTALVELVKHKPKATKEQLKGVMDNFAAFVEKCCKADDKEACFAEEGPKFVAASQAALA
Procedure: as §1

Rat Serum Albumin [5] = target: B2; assay: Albumin KD column of the PK table (repeats Table 6; row marked historical data); Albumin KD column of PK Table 10; historical data
[6] = target: T3, Cynomolgus monkey Serum Albumin; assay: Albumin KD column of the PK table (repeats Table 6; row marked historical data)
[7] = target: T4, DOM7h-14/Exendin-4 fusion DMS number 7138; assay: BIAcore SPR (Albumin KD column)
T4 construct: exendin-4, (G4S)3 linker, AlbudAb; also called DMS7138

[8] = target: T5, DOM7h-14-19/Exendin-4 fusion DMS number 7141; assay: BIAcore SPR (Albumin KD column)
T5 construct: exendin-4, (G4S)3 linker, AlbudAb; also called DMS7141

[9] = target: T6, DOM7h-11/Exendin-4 fusion DMS number 7142; assay: BIAcore SPR (Albumin KD column)
T6 construct: exendin-4, (G4S)3 linker, AlbudAb; also called DMS7142

[10] = target: T7, DOM7h-11-12/Exendin-4 fusion DMS number 7147; assay: BIAcore SPR (Albumin KD column)
T7 construct: exendin-4, (G4S)3 linker, AlbudAb; also called DMS7147

[11] = target: T8, DOM7h-14-18/Exendin-4 fusion DMS number 7140; assay: BIAcore SPR (Albumin KD column)
T8 construct: exendin-4, (G4S)3 linker, AlbudAb; also called DMS7140

[12] = target: T9, DOM7h-14-10/Exendin-4 fusion DMS number 7139; assay: BIAcore SPR (Albumin KD column)
T9 construct: exendin-4, (G4S)3 linker, AlbudAb; also called DMS7139

[13] = target: T10, DOM7h-11-15/Exendin-4 fusion DMS number 7143; assay: BIAcore SPR (Albumin KD column)
T10 construct: exendin-4, (G4S)3 linker, AlbudAb; also called DMS7143

Rat Serum Albumin [14] = target: B2; assay: BIAcore SPR (Albumin KD column)
[15] = target: T3, Cynomolgus monkey Serum Albumin; assay: Albumin KD column of the PK table (row marked historical data; differs from Table 6); historical data (*), not the Table 6 run
Rat Serum Albumin [16] = target: B2; assay: Albumin KD column of the PK table (repeats Table 6)
mouse serum albumin [17] = target: T1, mouse serum albumin; assay: as above
Rat Serum Albumin [18] = target: B2; assay: BIAcore SPR, second independent experiment;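 also: purified domain antibodies run as analytes at 50 nM, 500 nM and 1 µM over HSA, CSA, MSA and RSA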
Procedure: as §1

mouse serum albumin [19] = target: T1, mouse serum albumin; assay: BIAcore SPR, second independent experiment;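 also: purified domain antibodies run as analytes at 50 nM, 500 nM and 1 µM over HSA, CSA, MSA and RSA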
Procedure: as §1

Human Serum Albumin [20] = target: T2, Human Serum Albumin; assay: BIAcore SPR, second independent experiment;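 also: purified domain antibodies run as analytes at 50 nM, 500 nM and 1 µM over HSA, CSA, MSA and RSA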
Procedure: as §1

[21] = target: T3, Cynomolgus monkey Serum Albumin; assay: BIAcore SPR, second independent experiment;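 also: purified domain antibodies run as analytes at 50 nM, 500 nM and 1 µM over HSA, CSA, MSA and RSA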
Procedure: as §1

Rat Serum Albumin [22] = target: B2; assay: BIAcore SPR, second independent experiment; second, independent SPR experiment (bracketed values)
Procedure: as §1

Rat Serum Albumin [23] = target: B2; assay: BIAcore SPR; remark: listed apart in the source
Source text: (§2) MSA antigen was obtained from Sigma (essentially fatty acid free, ˜99% (agarose gel electrophoresis), lyophilized powder Cat. No. A3559) and CSA was purified from Cynomolgus serum albumin using prometic blue resin (Amersham).

mouse serum albumin [24] = target: T1, mouse serum albumin; assay: BIAcore SPR; remark: listed apart in the source
Source text: as §2

Human Serum Albumin [25] = target: T2, Human Serum Albumin; assay: BIAcore SPR; remark: listed apart in the source
Source text: as §2

[26] = target: T3, Cynomolgus monkey Serum Albumin; assay: BIAcore SPR; remark: listed apart in the source
Source text: as §2

[27] = target: T3, Cynomolgus monkey Serum Albumin; assay: Albumin KD column of the PK table (repeats Table 6)
Rat Serum Albumin [28] = target: B2; assay: BIAcore SPR, DOM1m-21-23 fusion against unfused AlbudAb

Row | Binder | Kd (Rat Serum Albumin [1]) | koff (Rat Serum Albumin [1]) | kon (Rat Serum Albumin [1]) | Kd (mouse serum albumin [2]) | koff (mouse serum albumin [2]) | Kd (Human Serum Albumin [3]) | koff (Human Serum Albumin [3]) | kon (Human Serum Albumin [3]) | Kd [4] | koff [4] | kon [4] | also measured
1 | B1 | 60 nM | 0.209 s⁻¹ | 4e+06 M⁻¹ s⁻¹ | 12 nM | 0.0482 s⁻¹ | 33 nM | 0.0417 s⁻¹ | 1.43e+06 M⁻¹ s⁻¹ | 66 nM | 0.0965 s⁻¹ | 1.5e+06 M⁻¹ s⁻¹ | kon (mouse serum albumin [2]): 4.1e+06 M⁻¹ s⁻¹; Kd (Rat Serum Albumin [5]): 60 nM; Kd [6]: 66 nM
2 | B2 |  |  |  |  |  |  |  |  |  |  |  | Kd [7]: 2400 nM; Kd [8]: 17 µM; Kd [9]: 24 µM; Kd [10]: 1400 nM; Kd [11]: 16 µM; Kd [12]: 19 nM; Kd [13]: 130 nM
3 | B3 |  |  |  |  |  |  |  |  |  |  |  | Kd (Rat Serum Albumin [14]): 35 nM
4 | B4 | 2100 nM | 0.1 s⁻¹ | 48000 M⁻¹ s⁻¹ | 5000 nM | 0.9 s⁻¹ |  |  |  | 1000 nM | 0.682 s⁻¹ | 800000 M⁻¹ s⁻¹ | Kd [15]: 3.3 µM; Kd (Rat Serum Albumin [16]): 2100 nM; Kd (mouse serum albumin [17]): 5000 nM
5 | B5 | 10000 nM |  |  | ≥ 10000 nM |  | 32 nM | 0.016 s⁻¹ | 650000 M⁻¹ s⁻¹ | 670 nM | 0.096 s⁻¹ | 290000 M⁻¹ s⁻¹ | Kd (Rat Serum Albumin [18]): 88 µM; kon (Rat Serum Albumin [18]): 8110 M⁻¹ s⁻¹; Kd (mouse serum albumin [19]): 36 µM; koff (mouse serum albumin [19]): 0.612 s⁻¹; kon (mouse serum albumin [19]): 16700 M⁻¹ s⁻¹; Kd (Human Serum Albumin [20]): 130 nM; koff (Human Serum Albumin [20]): 0.0235 s⁻¹; kon (Human Serum Albumin [20]): 186000 M⁻¹ s⁻¹; Kd [21]: 200 nM; koff [21]: 0.15 s⁻¹; kon [21]: 726000 M⁻¹ s⁻¹; koff (Rat Serum Albumin [22]): 0.718 s⁻¹
6 | B6 | 20 nM | 0.021 s⁻¹ | 1.1e+06 M⁻¹ s⁻¹ | 10 nM | 0.0094 s⁻¹ | 1 nM | 0.00184 s⁻¹ | 2e+06 M⁻¹ s⁻¹ | 3 nM | 0.00557 s⁻¹ |  | kon (mouse serum albumin [2]): 1.1e+06 M⁻¹ s⁻¹; Kd (Rat Serum Albumin [23]): 21 nM; Kd (mouse serum albumin [24]): 10.3 nM; Kd (Human Serum Albumin [25]): 1.4 nM; Kd [26]: 5.3 nM; Kd (Rat Serum Albumin [16]): 20 nM; Kd (mouse serum albumin [17]): 10 nM; Kd [27]: 3 nM
7 | B7 |  |  |  |  |  |  |  |  |  |  |  | fold decrease in affinity to RSA compared to the unfused AlbudAb (Rat Serum Albumin [28]): 2 fold
8 | B8 |  |  |  |  |  |  |  |  |  |  |  | fold decrease in affinity to RSA compared to the unfused AlbudAb (Rat Serum Albumin [28]): 2 fold
9 | B9 |  |  |  |  |  |  |  |  |  |  |  | Kd (Rat Serum Albumin [14]): 62 nM
